# Numbering of substitutions follows the chain as printed.
# T1: Fc-fused mouse OX40 ECD (mouse, UniProt P47741 20-211)
# T1 construct: extracellular domain; also called recombinant mouse OX40 ECD; not shown: Fc
# T1 sequence (looked up): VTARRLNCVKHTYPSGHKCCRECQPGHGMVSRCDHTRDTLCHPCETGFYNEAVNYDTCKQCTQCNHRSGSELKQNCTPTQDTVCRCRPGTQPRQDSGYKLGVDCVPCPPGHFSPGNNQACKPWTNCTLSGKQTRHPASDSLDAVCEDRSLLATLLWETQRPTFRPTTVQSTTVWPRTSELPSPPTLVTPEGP
# T2: Human OX40 expressed on transfected Jurkat or CHO cells (human, UniProt P43489 29-277)
# T2 construct: also called human OX40/Jurkat; human OX40/CHO
# T2 sequence: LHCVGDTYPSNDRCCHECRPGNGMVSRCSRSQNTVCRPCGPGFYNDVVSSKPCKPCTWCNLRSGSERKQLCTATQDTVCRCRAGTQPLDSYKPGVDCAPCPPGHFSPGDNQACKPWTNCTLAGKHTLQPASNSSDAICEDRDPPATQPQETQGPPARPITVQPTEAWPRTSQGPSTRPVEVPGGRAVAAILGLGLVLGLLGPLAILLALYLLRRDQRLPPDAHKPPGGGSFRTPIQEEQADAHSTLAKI
# T3: Recombinant human OX40 extracellular domain fused to human IgG1 Fc (human, UniProt P43489 29-214)
# T3 construct: Produced in-house; also called OX40 ECD-Fc; human OX40 ECD-Fc; not shown: human IgG1 Fc
# T3 sequence: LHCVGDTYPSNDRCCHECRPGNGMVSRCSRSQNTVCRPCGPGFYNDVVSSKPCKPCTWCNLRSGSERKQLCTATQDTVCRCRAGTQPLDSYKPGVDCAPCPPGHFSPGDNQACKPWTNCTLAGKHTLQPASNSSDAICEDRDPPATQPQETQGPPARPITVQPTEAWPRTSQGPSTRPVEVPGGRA
# T4: Cynomolgus OX40 expressed on transfected CHO cells (cynomolgus)
# T4 chain: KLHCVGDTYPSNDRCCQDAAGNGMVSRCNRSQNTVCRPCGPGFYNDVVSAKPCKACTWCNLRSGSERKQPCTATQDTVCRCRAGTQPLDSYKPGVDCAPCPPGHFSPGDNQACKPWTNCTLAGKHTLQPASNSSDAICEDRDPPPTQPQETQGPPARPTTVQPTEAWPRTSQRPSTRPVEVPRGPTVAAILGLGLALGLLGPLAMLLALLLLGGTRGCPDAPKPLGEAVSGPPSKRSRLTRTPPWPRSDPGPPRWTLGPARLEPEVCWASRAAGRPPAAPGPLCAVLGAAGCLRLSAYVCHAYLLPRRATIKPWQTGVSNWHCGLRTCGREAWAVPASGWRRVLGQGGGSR
# T5: Human CTLA4 expressed on transfected CHO or Jurkat cells (human, UniProt P16410 36-222)
# T5 construct: also called human CTLA4/CHO; human CTLA4/Jurkat
# T5 sequence: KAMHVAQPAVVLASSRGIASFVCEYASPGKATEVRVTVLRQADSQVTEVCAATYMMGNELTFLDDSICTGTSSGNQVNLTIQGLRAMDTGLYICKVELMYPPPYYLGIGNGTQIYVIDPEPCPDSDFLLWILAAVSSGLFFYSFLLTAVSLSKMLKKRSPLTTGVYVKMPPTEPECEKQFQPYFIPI
# B1: c5E10 chimeric bivalent antibody (llama VHH clone 5E10 fused to human IgG1 Fc) (antibody, V domains shown)
# VH: QVKLEESGGGSVQSGGSLRLACSASGPLGYPSIAWFRQVTGKDQEFVAGIAWSGGDTYYADSVKGRFAISRDTDRNTVELQMNNLKPEDTAVYYCAADTVVHYMGRHDIRDREEYDHWGQGTQVTVSS
# notes: Bivalent VHH-Fc, human IgG1 Fc; also called c5E10-Fc; c5E10-bi
# B2: Ipilimumab (anti-CTLA4 antibody) (antibody, V domains shown)
# VH: QVQLVESGGGVVQPGRSLRLSCAASGFTFSSYTMHWVRQAPGKGLEWVTFISYDGNNKYYADSVKGRFTISRDNSKNTLYLQMNSLRAEDTAIYYCARTGWLGPFDYWGQGTLVTVSS
# VL: not shown
# B3: 1B3 VHH-Fc bivalent antibody (antibody, human IgG1, V domains shown)
# VH: EVQLVESGGGLVQPGGSLRLSCAASGPLGMPSIAWFRQAPGKGLEFVSGIAWSTGDTYYADSVKGRFTISRDNSKNTLYLQMNSLRAEDTAVYYCAADTQVHYMGRHDIRDREEYDYWGQGTLVTVSS
# notes: also called 1B3-bivalent
# B4: 1B3 tetravalent anti-OX40 antibody (1B3 VHH with GS linker on CH1 and on CL of human IgG1) (antibody, V domains shown)
# V domain 1: B3 VH
# V domain 2: B3 VH
# notes: Four-chain format; The heavy and light variable regions of human IgG1 are replaced by the VHH
# B5: 2B7 tetravalent anti-OX40 antibody (2B7 VHH with GS linker on CH1 and on CL of human IgG1) (antibody, V domains shown)
# V domain 1: B3 VH with M30A, Q100S, R112Y
# V domain 2: B3 VH with M30A, Q100S, R112Y
# B6: 2B7 VHH-Fc bivalent antibody (antibody, human IgG1, V domains shown)
# VH: B3 VH with M30A, Q100S, R112Y
# notes: also called 2B7-bivalent
# B7: 4H2 VHH-Fc bivalent antibody (antibody, human IgG1, V domains shown)
# VH: B3 VH with M30Y, Q100V, R112A
# notes: Humanized VHH fused to human IgG1 Fc
# B8: 1E6 VHH-Fc bivalent antibody (antibody, human IgG1, V domains shown)
# VH: B3 VH with M30L, Q100V, R106Q, E113V
# notes: as for B7
# B9: 1G9B VHH-Fc bivalent antibody (antibody, human IgG1, V domains shown)
# VH: B3 VH with M30Y, S32H, T54G, T57S, Q100L, R110S
# notes: as for B7
# B10: 1C8 VHH-Fc bivalent antibody (antibody, human IgG1, V domains shown)
# VH: B3 VH with M30L, S53E, T54G, Q100V, R112Y
# notes: as for B7
# B11: 4F5 VHH-Fc bivalent antibody (antibody, human IgG1, V domains shown)
# VH: B3 VH with M30L, A51V, T54G, Q100K, H107F, R112L
# notes: as for B7
# B12: 4A6B VHH-Fc bivalent antibody (antibody, human IgG1, V domains shown)
# VH: B3 VH with M30Y, S32L, T54D, Q100V, E113S
# notes: as for B7
# B13: 4E8 VHH-Fc bivalent antibody (antibody, human IgG1, V domains shown)
# VH: B3 VH with M30Y, I33F, T54S, Q100V, H102G, R112L
# notes: as for B7
# B14: 1F4B VHH-Fc bivalent antibody (antibody, human IgG1, V domains shown)
# VH: B3 VH with M30T, G49A, T54Q, Q100V, R112E
# notes: as for B7
# B15: 4D10 VHH-Fc bivalent antibody (antibody, human IgG1, V domains shown)
# VH: B3 VH with M30Y, S32F, Q100V
# notes: as for B7
# B16: 2D3B VHH-Fc bivalent antibody (antibody, human IgG1, V domains shown)
# VH: B3 VH with M30S, Q100V, G105V, E114S
# notes: as for B7
# B17: 2D9 VHH-Fc bivalent antibody (antibody, human IgG1, V domains shown)
# VH: B3 VH with M30Y, S32N, Q100V, E114V
# notes: as for B7
# B18: 1B7 VHH-Fc bivalent antibody (antibody, human IgG1, V domains shown)
# VH: B3 VH with M30E, T54S, Q100V
# notes: as for B7
# B19: 3B8 VHH-Fc bivalent antibody (antibody, human IgG1, V domains shown)
# VH: B3 VH with M30Q, T54S, Q100R
# notes: as for B7
# B20: 5E10 llama VHH (VHH)
# VHH: B1 VH with Q120P
# notes: VHH secreted into the culture supernatant from phagemid pADL-23c; also called c5E10 VHH
# Target: T1, Fc-fused mouse OX40 ECD
# Test: ELISA: plate coated with Fc-fused mouse OX40 ECD, biotin-labeled c5E10, HRP-avidin, OD450
# Method: The protein was expressed in ExpiCHO cells, and purified by Protein A affinity chromatography. […] Briefly, 1 μg/ml of Fc-fused human or mouse OX40 ECD was coated in a 96-well high binding plate at 4° C. overnight.
row,Binder,binding result
1,B1,no binding

# Target: T2, Human OX40 expressed on transfected …
# Test: flow cytometry, whole cell binding to human OX40-expressing Jurkat cells, Alexa Fluor488 anti-human IgG Fc, Geo MFI
row,Binder,binding result
1,B2,no binding

# Target: T2, Human OX40 expressed on transfected …
# Test: flow cytometry on human OX40-expressing CHO cells, Geo MFI
# Method: (§1) FIGS. 4A-4D depict whole cell binding of anti-OX40 antibodies to human and cynomolgus OX40 assessed by flow cytometry.
# (§2) Bivalent antibodies of these 15 clones were made by fusing VHH to human IgG1 Fc, expressed in ExpiCHO cells, and purified by Protein A affinity column. Binding affinity of the VHH-Fc bivalent antibodies to human or cynomolgus OX40 was evaluated by flow cytometry using Jurkat cells transfected with human OX40 (human OX40/Jurkat) (FIG. 2A), CHO cells transfected with human OX40 (human OX40/CHO) (FIG. 2B), and CHO cells transfected with cynomolgus OX40 (cyno OX40/CHO) (FIG. 2C). These antibodies with indicated concentrations were incubated with the cells in FACS buffer (3% FBS in PBS) on ice for 30 min, and the free antibodies were washed out with FACS buffer. Alexa fluor488 conjugated anti-human IgG Fc antibody (1:500) (Alexa Fluor488 AffiniPure goat anti-human IgG, Fcg fragment specific, Jackson labs) was further incubated with the cells on ice for 30 min. Cells were washed to remove free antibodies prior to FACS analysis using CytoFlex (Beckman Coulter). Binding affinity was calculated using GraphPad Prism three parameter logistic equation.
# (§3) The binding affinity of the anti-OX40 antibodies was further evaluated by flow cytometry using human OX40/Jurkat cells and human OX40/CHO cells using protocols described above. […] The cross-reactivity of the antibodies to cynomolgus OX40 was assessed by FACS analysis using cyno OX40/CHO cells.
row,Binder,EC50 [nM]
1,B3,2.69
2,B4,2.01
3,B5,1.96
4,B6,3.11

# Target: T2, Human OX40 expressed on transfected …
# Test: flow cytometry, whole cell binding to human OX40-expressing Jurkat cells, Geo MFI
row,Binder,EC50 [nM]
1,B4,0.15
2,B5,0.14

# Target: T2, Human OX40 expressed on transfected …
# Test: as above
# Remark: another data set of the same source
row,Binder,EC50 [nM]
1,B5,0.39

# Target: T3, Recombinant human OX40 extracellular …
# Test: Octet, human OX40 ECD-Fc immobilized on a biosensor chip
# Text: The tetravalent antibodies were produced from transiently transfected ExpiCHO cells, and purified by Protein A affinity column.
Binder,Kd [nM],koff [s⁻¹]
B3,3.83,0.000391
B4,6.57,0.000646
B5,6.94,0.000763
B6,3.68,0.000398

# Target: T2, Human OX40 expressed on transfected …
# Test: flow cytometry on human OX40-transfected Jurkat cells, Alexa Fluor488 anti-human IgG Fc, Geo MFI
# Method: FIGS. 2A-2C depict whole cell binding of humanized anti-OX40 antibodies to human or cynomolgus OX40 assessed by flow cytometry. Human OX40-expressing Jurkat cells (FIG. 2A), human OX40-expressing CHO cells (FIG. 2B) and cynomolgus OX40-expressing CHO cells (FIG. 2C) were incubated with indicated anti-OX40 bivalent antibodies, and then stained with Alexa Fluor488 conjugated anti-human IgG Fc antibody. The fluorescence intensity was measured by flow cytometry.
# as §2
row,Binder,binding result
1,B7,binds
2,B8,binds
3,B9,binds
4,B10,binds
5,B11,binds
6,B12,binds
7,B13,binds
8,B14,binds
9,B15,binds
10,B16,binds
11,B17,binds
12,B18,binds
13,B19,binds

# Target: T2, Human OX40 expressed on transfected …
# Test: flow cytometry on human OX40-expressing Jurkat cells, Geo MFI
# Method: as §1, §2, §3
row,Binder,EC50 [nM]
1,B3,4.25
2,B4,0.16
3,B5,0.2
4,B6,9.79

# Target: T4, Cynomolgus OX40 expressed on …
# Test: flow cytometry on cynomolgus OX40-expressing CHO cells, Geo MFI
# Method: as §1
# as §2, with “Cells were washed to remove free antibodies prior to FACS analysis using CytoFlex (Beckman Coulter).” left out
# as §3
row,Binder,EC50 [nM]
1,B4,1.93
2,B5,1.98

# Target: T3, Recombinant human OX40 extracellular …
# Test: ELISA of VHH supernatants on plates pre-coated with human OX40 ECD-Fc or human OX40 ECD-His
# Text: Colonies were picked and cultured in 2×YT medium with IPTG to secrete VHH antibodies. Supernatants with VHH antibodies were screened by ELISA using human OX40 ECD-Fc or human OX40 ECD-His pre-coated plates.
row,Binder,binding result
1,B20,binds

# Target: T5, Human CTLA4 expressed on transfected …
# Test: flow cytometry, whole cell binding to human CTLA4-expressing CHO cells, Alexa Fluor488 anti-human IgG Fc, Geo MFI
row,Binder,binding result
1,B1,no binding

# Source: patent US20240383996A1 (SHANGHAI HENLIUS BIOTECH, published 2024)
